Source: the Human Domainome abundance scans (Beltran et al. 2025)
± gives the uncertainty stated by the source.

B1: Ankyrin repeat and SAM domain-containing protein 6, residues 774 to 836; numbered along this chain, Q68DC2 (parent)
chain: DEDELTGILKKLSLEKYQPIFEEQEVDMEAFLTLTDGDLKELGIKTDGSRQQILAAISELNAG

Variants of: B1
Test: abundance fitness (aPCA) (normalised: wild type 0, dead -1); higher = more abundant; growth selection in yeast, the domain comes from the species named
Conditions: Homo sapiens

Abundance fitness: each site, then its substitutions
F21: E -0.36 ± 0.092, M -0.372 ± 0.077, A -0.348 ± 0.058, R -0.609 ± 0.049, S -0.615 ± 0.06, G -0.579 ± 0.079, I -0.615 ± 0.17, T -0.589 ± 0.081, P -0.65 ± 0.098, V -0.595 ± 0.095, H -0.629 ± 0.058, K -0.556 ± 0.082, C -0.697 ± 0.2, L -0.222 ± 0.048, W -0.847 ± 0.096, N -0.553 ± 0.16
M28: E -0.437 ± 0.097, F -0.132 ± 0.07, T 0.007 ± 0.053, C -0.319 ± 0.072, I -0.202 ± 0.063, G -0.213 ± 0.043, N -0.315 ± 0.11, P -0.168 ± 0.055, V -0.219 ± 0.054, Q -0.29 ± 0.073, S -0.094 ± 0.054, K -0.025 ± 0.061, R -0.159 ± 0.039, L -0.155 ± 0.04, H -0.218 ± 0.099, D -0.466 ± 0.097, Y -0.106 ± 0.07, A -0.055 ± 0.056
Q24: P -0.925 ± 0.11, H -0.261 ± 0.12, S -0.033 ± 0.039, Y -0.112 ± 0.11, R -0.096 ± 0.044, A -0.04 ± 0.041, K -0.042 ± 0.081, D -0.369 ± 0.07, T -0.257 ± 0.062, I -0.47 ± 0.11, F -0.25 ± 0.11, V -0.442 ± 0.042, M -0.165 ± 0.1, G -0.128 ± 0.042, W -0.458 ± 0.081
F31: S -0.513 ± 0.056, V -0.342 ± 0.05, I -0.343 ± 0.058, P -0.469 ± 0.07, K -0.362 ± 0.064, L -0.305 ± 0.063, G -0.443 ± 0.044, N -0.441 ± 0.07, A -0.37 ± 0.05, W -0.432 ± 0.066, C -0.797 ± 0.11, E -0.384 ± 0.062, H -0.586 ± 0.088, R -0.426 ± 0.047, D -0.51 ± 0.056, Y -0.563 ± 0.068, T -0.638 ± 0.058, M -0.329 ± 0.07
L32: Y -0.334 ± 0.073, P -0.199 ± 0.056, T -0.157 ± 0.06, V -0.103 ± 0.049, W -0.536 ± 0.058, R 0.039 ± 0.043, G -0.251 ± 0.048, I -0.181 ± 0.042, D -0.408 ± 0.068, N -0.295 ± 0.071, K 0.264 ± 0.059, E -0.271 ± 0.071, M -0.083 ± 0.065, A -0.097 ± 0.055
D38: S -0.232 ± 0.042, A -0.49 ± 0.051, Q -0.165 ± 0.1, K -0.188 ± 0.11, L -1.16 ± 0.076, I -1.12 ± 0.11, H -0.418 ± 0.076, V -1.06 ± 0.084, N -0.2 ± 0.081, E -0.072 ± 0.069, F -1.28 ± 0.2, W -0.965 ± 0.087, T -0.369 ± 0.056, R -0.074 ± 0.038, C -0.773 ± 0.091, M -0.611 ± 0.099, P -0.645 ± 0.063, G -0.273 ± 0.046, Y -1.11 ± 0.15
L39: K -0.912 ± 0.13, W -1 ± 0.063, Y -0.673 ± 0.089, S -0.683 ± 0.051, T -0.667 ± 0.072, P -0.747 ± 0.067, F -0.616 ± 0.075, Q -0.605 ± 0.072, V -0.57 ± 0.043, R -0.599 ± 0.048, E -0.625 ± 0.071, C -0.662 ± 0.088, N -0.514 ± 0.071, H -0.751 ± 0.16, D -0.499 ± 0.11, M -0.437 ± 0.095, A -0.59 ± 0.06, G -0.699 ± 0.052
E25: C -0.073 ± 0.057, Q -0.204 ± 0.21, T -0.412 ± 0.082, G -0.023 ± 0.078, F -0.166 ± 0.051, A 0.023 ± 0.11, Y -0.262 ± 0.05, N 0.006 ± 0.051, W -0.449 ± 0.17, R -0.147 ± 0.069, S -0.08 ± 0.041, H -0.048 ± 0.062, V -0.21 ± 0.061, I -0.281 ± 0.06, L -0.293 ± 0.062, D -0.159 ± 0.063, P -0.653 ± 0.14, M -0.038 ± 0.084, K 0.301 ± 0.15
E29: V -0.334 ± 0.051, A -0.025 ± 0.046, F -0.648 ± 0.097, C -0.338 ± 0.065, D -0.107 ± 0.05, N -0.32 ± 0.22, K 0.099 ± 0.039, H -0.356 ± 0.13, S -0.228 ± 0.043, G -0.162 ± 0.047, M -0.318 ± 0.075, Q -0.097 ± 0.049, L -0.51 ± 0.046, T -0.123 ± 0.046, P -0.105 ± 0.056, Y -0.417 ± 0.086
A30: S -0.015 ± 0.044, F -0.246 ± 0.072, C -0.02 ± 0.084, N -0.049 ± 0.068, D -0.273 ± 0.063, I -0.164 ± 0.081, K 0.001 ± 0.065, Y -0.218 ± 0.074, T -0.125 ± 0.055, R 0.096 ± 0.035, E -0.073 ± 0.062, L -0.089 ± 0.048, P -0.784 ± 0.088, V -0.093 ± 0.047, W -0.464 ± 0.06, M -0.075 ± 0.06, H 0.037 ± 0.06
G37: P -0.035 ± 0.051, K 0.033 ± 0.054, V -0.028 ± 0.038, H -0.087 ± 0.09, C -0.269 ± 0.087, F -0.051 ± 0.066, N -0.095 ± 0.099, L -0.049 ± 0.039, D 0.117 ± 0.1, Y -0.138 ± 0.086, E -0.001 ± 0.072, R -0.111 ± 0.057, S -0.058 ± 0.049, W -0.331 ± 0.068, T -0.064 ± 0.068, A 0.004 ± 0.05
E22: L -0.179 ± 0.045, S -0.059 ± 0.046, K -0.103 ± 0.052, M -0.091 ± 0.072, G -0.388 ± 0.054, W -0.743 ± 0.068, Y -0.231 ± 0.075, I -0.854 ± 0.36, T -0.093 ± 0.054, H -0.394 ± 0.094, C -0.299 ± 0.072, A -0.107 ± 0.04, Q -0.104 ± 0.063, V -0.256 ± 0.048, F -0.402 ± 0.074, D -0.149 ± 0.072
L34: E -0.526 ± 0.071, F -0.298 ± 0.14, T -0.556 ± 0.073, Y -0.095 ± 0.12, G -0.551 ± 0.052, H -0.356 ± 0.086, M 0.038 ± 0.083, S -0.457 ± 0.057, N -0.483 ± 0.15, C -0.459 ± 0.079, D -0.654 ± 0.12, V -0.345 ± 0.065, W -0.657 ± 0.039, A -0.403 ± 0.06, P -0.561 ± 0.078, I -0.627 ± 0.2, R -0.523 ± 0.051, K -0.309 ± 0.064
K40: A -0.121 ± 0.044, C -0.215 ± 0.11, D -0.084 ± 0.063, E -0.041 ± 0.077, F -0.326 ± 0.052
I20: N -0.015 ± 0.097, Y -0.273 ± 0.072, Q -0.083 ± 0.061, S -0.301 ± 0.062, T -0.096 ± 0.068, R -0.046 ± 0.05, P -0.617 ± 0.08, M 0.09 ± 0.06, V 0.101 ± 0.093, W -0.252 ± 0.097
E23: M -0.318 ± 0.067, P -0.95 ± 0.086, D -0.155 ± 0.085, Y -0.543 ± 0.07, I -0.317 ± 0.083, C -0.409 ± 0.062, R -0.06 ± 0.039, T -0.231 ± 0.062, Q -0.17 ± 0.066, S -0.168 ± 0.047, N -0.165 ± 0.068, A -0.062 ± 0.051, K -0.085 ± 0.1, G -0.229 ± 0.062, H -0.429 ± 0.13, L -0.419 ± 0.039, V -0.593 ± 0.068
T33: K 0.141 ± 0.05, W -0.49 ± 0.055, H -0.012 ± 0.21, E -0.032 ± 0.095, G -0.057 ± 0.041, R 0.048 ± 0.032, Q -0.071 ± 0.073, F -0.642 ± 0.17, N -0.053 ± 0.098, D -0.122 ± 0.071, A -0.037 ± 0.053, V -0.215 ± 0.043, S -0.023 ± 0.042, I -0.507 ± 0.15, Y -0.496 ± 0.13, P -0.712 ± 0.074, M -0.048 ± 0.098
D27: V -0.988 ± 0.045, Y -0.729 ± 0.077, T 0.001 ± 0.044, L -0.895 ± 0.054, S -0.075 ± 0.048, A -0.47 ± 0.042, E -0.294 ± 0.063, C -0.376 ± 0.075, K -0.212 ± 0.051, R -0.215 ± 0.044, W -0.857 ± 0.11, Q -0.44 ± 0.073, F -1.25 ± 0.25, P -0.483 ± 0.054, H -0.282 ± 0.075, I -0.827 ± 0.096
T35: V -0.687 ± 0.045, W -0.879 ± 0.099, Q -0.026 ± 0.056, S 0.037 ± 0.06, L -0.932 ± 0.053, R -0.057 ± 0.041, D 0.037 ± 0.091, A -0.377 ± 0.045, M -0.65 ± 0.074, N -0.078 ± 0.064, C -0.363 ± 0.085, H -0.302 ± 0.082, G -0.199 ± 0.05, F -0.779 ± 0.26, E -0.067 ± 0.048, I -0.695 ± 0.11
V26: Y -0.327 ± 0.099, N -0.664 ± 0.11, I -0.056 ± 0.066, H -0.74 ± 0.097, K -0.425 ± 0.063, A -0.542 ± 0.049, W -0.405 ± 0.047, R -0.588 ± 0.048, D -0.821 ± 0.14, S -0.649 ± 0.052, G -0.539 ± 0.041, M -0.024 ± 0.07, F -0.177 ± 0.082, L -0.145 ± 0.038, C -0.353 ± 0.06, T -0.479 ± 0.081, E -0.532 ± 0.071, Q -0.589 ± 0.061
D36: R -0.72 ± 0.05, L -0.702 ± 0.046, M -0.441 ± 0.046, K -0.449 ± 0.06, I -0.642 ± 0.086, E -0.051 ± 0.069, G -0.405 ± 0.066, C -0.487 ± 0.082, T -0.532 ± 0.054, Q -0.565 ± 0.072, V -0.571 ± 0.055, H -0.584 ± 0.078, S -0.392 ± 0.044, N -0.252 ± 0.084, F -1.02 ± 0.092
